The chains are these.
T1: human B7-H7 on the cell surface (human, UniProt Q9UM44 23-414)
T1 construct: whole, on cells; also called hB7-H7; hu B7-H7
T1 sequence (looked up): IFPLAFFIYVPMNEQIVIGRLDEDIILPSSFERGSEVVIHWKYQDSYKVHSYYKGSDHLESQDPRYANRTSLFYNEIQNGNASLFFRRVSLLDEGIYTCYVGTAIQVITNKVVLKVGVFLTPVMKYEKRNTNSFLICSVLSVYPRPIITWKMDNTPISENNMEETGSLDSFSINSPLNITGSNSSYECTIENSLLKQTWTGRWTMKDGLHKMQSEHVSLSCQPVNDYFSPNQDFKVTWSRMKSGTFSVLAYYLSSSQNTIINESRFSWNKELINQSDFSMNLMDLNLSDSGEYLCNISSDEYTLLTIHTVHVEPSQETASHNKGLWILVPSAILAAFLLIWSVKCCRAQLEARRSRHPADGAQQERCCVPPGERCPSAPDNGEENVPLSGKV

B1: PR004489 (antibody, human IgG1, kappa, L234A L235A, V domains shown)
VH: QVQLVESGGGVVQPGRSLRLSCAASGFTFSNYGMHWVRQVPGKGLEWVAVIWYEGSEKDYADSVKGRFTISRDNSKNTLYLQMNSLRVEDTAVYYCAKDLISGIYYVDHWGQGTLVTVSS
VL: DIQMTQSPSSLSASVGDRVTITCRASQGISNYLAWYQQKPGKVPKLLIYAASTLQSGVPSRFSGSGSGTDFTLTISSLQPEDVATYYCQKYNAAPFTFGPGTKVDIKR
notes: Variant of PR003259, H:D54E; L:S93A; Human IgG1 LALA; expressed supernatant only
B2: PR004490 (antibody, human IgG1, kappa, L234A L235A, V domains shown)
VH: QVQLVESGGGVVQPGRSLRLSCAASGFTFSNYGMHWVRQVPGKGLEWVAVIWYDASEKDYADSVKGRFTISRDNSKNTLYLQMNSLRVEDTAVYYCAKDLISGIYYVDHWGQGTLVTVSS
VL: DIQMTQSPSSLSASVGDRVTITCRASQGISNYLAWYQQKPGKVPKLLIYAASTLQSGVPSRFSGSGSGTDFTLTISSLQPEDVATYYCQKYNSAPFTFGPGTKVDIKR
notes: Variant of PR003259, H:G55A; Human IgG1 LALA; expressed supernatant only
B3: PR004494 (antibody, human IgG1, kappa, L234A L235A, V domains shown)
VH: QVQLVESGGGVVQPGRSLRLSCAASGFTFSNYGMHWVRQVPGKGLEWVAVIWYDGSEKDYADSVKGRFTISRDNSKNTLYLQMNSLRVEDTAVYYCAKDLISGIYYVDHWGQGTLVTVSS
VL: DIQMTQSPSSLSASVGDRVTITCRASQGISNYLAWYQQKPGKVPKLLIYAASTLQSGVPSRFSGSGSGTDFTLTISSLQPEDVATYYCQKYNAAPFTFGPGTKVDIKR
notes: Variant of PR003259, L:S93A; Human IgG1 LALA; expressed supernatant only
B4: PR004493 (antibody, human IgG1, kappa, L234A L235A, V domains shown)
VH: QVQLVESGGGVVQPGRSLRLSCAASGFTFSNYGMHWVRQVPGKGLEWVAVIWYDGSEKDYADSVKGRFTISRDNSKNTLYLQMNSLRVEDTAVYYCAKDLISGIYYVDHWGQGTLVTVSS
VL: DIQMTQSPSSLSASVGDRVTITCRASQGISNYLAWYQQKPGKVPKLLIYAASTLQSGVPSRFSGSGSGTDFTLTISSLQPEDVATYYCQKYQSAPFTFGPGTKVDIKR
notes: Variant of PR003259, L:N92Q; Human IgG1 LALA; expressed supernatant only
B5: PR004491 (antibody, human IgG1, kappa, L234A L235A, V domains shown)
VH: QVQLVESGGGVVQPGRSLRLSCAASGFTFSNYGMHWVRQVPGKGLEWVAVIWYDASEKDYADSVKGRFTISRDNSKNTLYLQMNSLRVEDTAVYYCAKDLISGIYYVDHWGQGTLVTVSS
VL: DIQMTQSPSSLSASVGDRVTITCRASQGISNYLAWYQQKPGKVPKLLIYAASTLQSGVPSRFSGSGSGTDFTLTISSLQPEDVATYYCQKYQSAPFTFGPGTKVDIKR
notes: Variant of PR003259, H:G55A; L:N92Q; Human IgG1 LALA
B6: PR004492 (antibody, human IgG1, kappa, L234A L235A, V domains shown)
VH: QVQLVESGGGVVQPGRSLRLSCAASGFTFSNYGMHWVRQVPGKGLEWVAVIWYDASEKDYADSVKGRFTISRDNSKNTLYLQMNSLRVEDTAVYYCAKDLISGIYYVDHWGQGTLVTVSS
VL: DIQMTQSPSSLSASVGDRVTITCRASQGISNYLAWYQQKPGKVPKLLIYAASTLQSGVPSRFSGSGSGTDFTLTISSLQPEDVATYYCQKYNAAPFTFGPGTKVDIKR
notes: Variant of PR003259, H:G55A; L:S93A; Human IgG1 LALA
B7: PR004483 (antibody, human IgG1, kappa, L234A L235A, V domains shown)
VH: QVQLVESGGGVVQPGRSLRLSCAASGFTFSDYGIHWVRQAPGKGLEWVAVIWYDASDKYYADSVRGRFTISRDNSKNTLSLQMNSLRVEDTAVYYCARDRSSGAMGYFVYWGQGTLVTVSS
VL: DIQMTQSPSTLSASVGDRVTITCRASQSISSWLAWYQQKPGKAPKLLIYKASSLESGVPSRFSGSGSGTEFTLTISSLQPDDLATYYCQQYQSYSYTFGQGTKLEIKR
notes: Variant of PR003249, H:G55A; L:N92Q; Human IgG1 LALA
B8: PR004484 (antibody, human IgG1, kappa, L234A L235A, V domains shown)
VH: QVQLVESGGGVVQPGRSLRLSCAASGFTFSDYGIHWVRQAPGKGLEWVAVIWYDASDKYYADSVRGRFTISRDNSKNTLSLQMNSLRVEDTAVYYCARDRSSGAMGYFVYWGQGTLVTVSS
VL: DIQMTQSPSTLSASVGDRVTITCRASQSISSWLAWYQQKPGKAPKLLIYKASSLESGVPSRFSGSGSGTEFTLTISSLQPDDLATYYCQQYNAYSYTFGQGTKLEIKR
notes: Variant of PR003249, H:G55A; L:S93A; Human IgG1 LALA

For one assay, the target named is T1, human B7-H7 on the cell surface. Nature of the assay: flow cytometry on LS180 cells, expression supernatant diluted 1:1, 1:10, 1:100. In general terms: Flow cytometry measures light scatter and fluorescence of single cells or particles in a stream.
Turning to B1, the binding result is recorded as “binds”.
Regarding B2, the binding result is “binds”.
Same read-out and setting: as for B3, the entry is “binds”.
Same read-out and setting: as for B4, the entry is “binds”.

The target is the same in the next assay. Nature of the assay: flow cytometry, LS180 cells. The method, then: This example was intended to study the in vitro activity of H2L2 monoclonal antibodies against human B7-H7 in binding to human/cynomolgus monkey B7-H7. Since homologous molecules of B7-H7 were not present in mice, the detection was not performed. […] The cells were adjusted to a cell density of 1×10⁶ cells/mL, respectively. The cells were seeded in a 96-well V-bottom plate (Corning, #3894) at 100 μL/well, and the antibody to be tested at 2× final concentration with 3-fold concentration gradient dilution was then added at 100 μL/well. The cells were incubated at 4° C. for 2 hours in the dark. After the incubation, the cells were rinsed twice by adding pre-chilled PBS containing 2% BSA at 100 μl/well, and centrifuged at 500 g at 4° C. for 5 minutes, and the supernatant was discarded. […] The cells were washed twice by adding pre-chilled PBS containing 2% BSA at 100 μL/well, and centrifuged at 500 g at 4° C. for 5 minutes, and the supernatant was discarded. Finally, the cells were resuspended in pre-chilled PBS containing 2% BSA at 200 μL/well, and the fluorescence signal values were read using an ACEA Novocyte3000 flow cytometer.
For B5, the EC50 (as a rule, the concentration at which the effect is half-maximal) turned out to be 0.066 nM and the “Maximum MFI” value is 22800 MFI.
With B6, the EC50 stood at 0.052 nM and the “Maximum MFI” value turned out to be 22900 MFI.
B7: the EC50 came to 0.044 nM and the “Maximum MFI” value was found to be 25100 MFI.
The corresponding values for B8 are 0.04 nM and 24600 MFI.

Source of the values: patent US20250136696A1 (HARBOUR BIOMED SHANGHAI, published 2025).
